Test results: patent US20220204565A1
Bridges are numbered along the chain shown (N, C = ends). Where no end group is shown, it is not given here. [ ]: non-standard residue; d: D form. triazolo‑proline = not defined here

B1: cPT 38 (peptide)
peptide: NIPWK
modifications: N-terminus of Asn 1 acylated by succinic acid whose other carboxyl is amide-bonded to Lys 5 side-chain amine (macrocycle; replaces Asp, no primary NH2); Pro 3 is 4-(4-(4-(thiophen-2-yl)phenyl)-1H-1,2,3-triazol-1-yl)proline; C-terminal amide
B2: cPT 16 (peptide)
peptide: DNIPWK-NH2
modifications: lactam 1-6; not fully specified (residue 4); also: Pro4 triazole substituent: phenyl joined through two spacer atoms
B3: cPT 30 (peptide)
peptide: DNIPWK-NH2
modifications: lactam 1-6; not fully specified (residue 4); also: Pro4 triazole substituent: isoquinoline moiety

Target: HIV-1 BaL.01 Env gp160 on pseudovirus (HIV-1 BaL.01)
Assay: cell-based or functional assay

Row | Binder | HIV-1Bal.01 infection inhibition IC50 | other results
1 | DNIPWK-NH2 (lactam 1-6; not fully specified (residue 4)) [cPT 31] | 1800 nM | –
2 | DNI[4‑(4-((2,2'-bithiophen)-5-yl)-1H-1,2,3-triazol-1-yl)proline]WK-NH2 (lactam 1-6) [cPT 37] | 405 nM | –
3 | DNI[triazolo‑proline]W[dK]-NH2 (lactam 1-6; not fully specified; reading uncertain) [cPT 4] | – | HIV-1 infection inhibition, fold decrease in activity against cPT 3: > 50 fold
4 | B1 | – | HIV-1Bal.01 cell infection inhibition IC50: 882 nM; HIV-1 infection inhibition, fold decrease in potency against cPT 36: 8 fold
5 | B2 | 2020 nM | –
6 | DNIPWK-NH2 (lactam 1-6; not fully specified (residue 4)) [cPT 32] | 7300 nM | –
7 | DNIPWK-NH2 (lactam 1-6; not fully specified (residue 4)) [cPT 33] | 6000 nM | –
8 | DNI[triazolo‑Pro][benzothienylalanine]K-NH2 (lactam 1-6; not fully specified) [cPT 14] | 170 nM | –
9 | B3 | 5000 nM | –
10 | [dD]NI[triazolo‑proline]WK-NH2 (lactam 1-6; not fully specified; reading uncertain) [cPT 5] | – | HIV-1 infection inhibition, fold decrease in activity against cPT 3: 7 fold
